Patent publication US20150191516A1 (ONCOTHERAPY SCIENCE, published 2015)

How the values were obtained:
HLA-DR15 (DRB1*15:02) = target: T1, HLA-DR15 (DRB1*15:02) (human); test: concluded from IFN-gamma ELISPOT with peptide-pulsed L cells expressing single HLA class II molecules and blocking mAbs; no direct binding assay
T1 construct: whole, on cells; MHC class II molecule on transfected L cells (L-DR15); also called L-DR15 (mouse L cells expressing it)
Method: (§1) The immune response of Th cells to APCs pulsed with peptides were assessed by IFN-gamma ELISPOT assays (Human IFN-gamma ELISPOT kit, BD Biosciences) as described previously (Tomita Y, et al. Cancer Sci; 102: 697-705.). Briefly, the frequency of peptide-specific CD4⁺ T cells producing IFN-gamma per 3×10⁴ bulk CD4⁺ T cells upon stimulation with peptide-pulsed PBMCs (3×10⁴ cells/well), or 1×10⁴ bulk CD4⁺ T cells upon stimulation with peptide-pulsed HLA-DR or DP-expressing L-cells (5×10⁴/well) was analyzed. To determine restriction HLA molecules involved in antigen presentation, blocking of antigen-induced IFN-gamma production was investigated by adding anti-HLA-DR mAb (L243, Biolegend), anti-HLA-DP mAb, (B7/21, abcam), anti-human HLA-DQ mAb (SPV-L3, abcam), or anti-HLA class I mAb, (W6/32, abcam). All mAbs were used at a final concentration of 5 micro-g/ml. Cells cultured with HIV-derived peptides were used as negative control. Cells cultured with PMA (100 ng/ml; Sigma-Aldrich) and ionomycin (500 ng/ml; Sigma-Aldrich) were used as positive controls. All assessments of IFN-gamma ELISPOT assays were carried out in duplicate or triplicate, and results corresponded to mean values.

HLA-DR8 (DRB1*08:03) = target: T2, HLA-DR8 (DRB1*08:03) (human); test: as above
T2 construct: whole, on cells; MHC class II molecule on transfected L cells (L-DR8); also called L-DR8 (mouse L cells expressing it)
Method: as §1

binding result (HLA-DR15 (DRB1*15:02)): binds
binding result (HLA-DR8 (DRB1*08:03)): binds
B1: LY6K (119-142) long peptide (peptide)
peptide: KWTEPYCVIAAVKIFPRFFMVAKQ
notes: Synthetic 24-mer, purity >90%
